Reference: patent US20230181748A1, “MEANS AND METHODS FOR THE TREATMENT OF PATHOLOGICAL AGGREGATION” (priority 2020, published 2023)

Tests used:
[1] = biological target: Tau aggregates (Homo sapiens, UniProt P10636); test: hetero-dimeric tandem capping peptide screen, Tau biosensor cell line; assay type: cell-based; conditions: 625 nM capping peptide, 50 nM Tau seeds, 24 hours
[2] = biological target: T1, Sup35-NM aggregates (Saccharomyces cerevisiae, UniProt P05453); test: hetero-dimeric tandem capping peptide screen, NM biosensor cell line; assay type: cell-based; conditions: 625 nM capping peptide, 50 nM NM seeds, 24 hours
T1 sequence (P05453 1-253 limits assumed): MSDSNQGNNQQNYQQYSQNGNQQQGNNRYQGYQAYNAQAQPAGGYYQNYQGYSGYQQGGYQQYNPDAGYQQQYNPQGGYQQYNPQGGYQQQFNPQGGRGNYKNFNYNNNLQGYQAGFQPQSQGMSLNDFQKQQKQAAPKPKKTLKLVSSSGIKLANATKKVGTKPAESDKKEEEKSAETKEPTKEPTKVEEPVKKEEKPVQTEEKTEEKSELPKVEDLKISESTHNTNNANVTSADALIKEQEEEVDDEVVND

[3] = biological target: T2, Aβ fibrils (Homo sapiens, UniProt P05067); test: in vitro Aβ seeding aggregation assay (Th-T); assay type: biochemical; conditions: fibrils 10 μM preincubated with 50 μM capping peptide approx. 4 hours; 10% added to 10 μM monomeric Aβ
T2 construct: mixed with preformed, sonicated Aβ aggregates (2 μM)
Experimental: Capping peptides from Table 6 were freshly dissolved in DMSO (stock concentration 1 mM) and filtered before the assay. 1 μL peptide capping solution was mixed with 19 μL preformed, sonicated Aβ fibrils (stock concentration 10 μM). As such, this mixture contained 10 μM Aβ fibrils and 50 μM capping peptide and was incubated for approx. 4 hours. Next, freshly dissolved monomeric Aβ was prepared by separation on a column. This monomeric Aβ (final concentration 10 μM) was mixed with 10% of the Aβ fibrils-peptide mixture and Th-T was added to monitor aggregation.

[4] = biological target: T3, Aβ aggregates (Homo sapiens, UniProt P05067); test: Aβ biosensor screening assay; assay type: cell-based; conditions: for capping activity of single capping sequence across all hetero-tandem peptides: analysis of all tandems containing the single sequence (FIG. 22); for relative number of cells positive for induced Aβ aggregation (seeding capacity of Aβ seeds): 100 nM Aβ aggregates on cells, concentration range of capping peptide
T3 construct: mixed with preformed, sonicated Aβ aggregates (2 μM)
Experimental: Hetero-tandem capping peptides depicted in Table 5 were dissolved in DMSO, filtered and mixed with preformed, sonicated Aβ aggregates (2 μM). This mixture was incubated for approx. 4 hours and transfected into Aβ biosensor cells. Aβ biosensor cells stably express soluble Aβ-mCherry and Aβ aggregation can be induced by transfecting preformed Aβ aggregates in these cells (FIG. 17). The final concentration of Aβ aggregates on the cells is 100 nM and a concentration range of capping peptides was used. In other words, the condition in which no seeds are added is shown as 0, while the condition in which 100 nM Aβ aggregates are added (without capping peptides) is shown as 1.

[5] = biological target: T4, preformed tau aggregates (Homo sapiens, UniProt P10636); test: tau biosensor seeding assay; assay type: cell-based; conditions: 20 hours after transfection; for fraction of cells with green spots (induced tau aggregation) / fraction of cells with red spots (exogenous preformed tau aggregates): single concentration 500 nM on cells, 200 nM preformed tau aggregates
Experimental: The 33 different non-natural molecules (with a final concentration of 10 μM) were mixed with preformed (sonicated) tau aggregates (with a final concentration of 4 μM). The preformed tau aggregates are labeled with a far-red atto-633 dye to monitor the efficiency of cellular uptake and degradation. After an incubation of 6 hours the resulting non-natural molecule—tau aggregate mixture was transfected in tau biosensor cells (described in Holmes et al (2014) Proc Natl Acad Sci USA. 111(41): E4376-E4385). The tau biosensor cell line is a monoclonal FRET biosensor HEK293T cell line stably expressing both the tau repeat domain (RD) fused to the fluorescent protein CFP and the tau repeat protein fused to the fluorescent protein YFP. Without the addition of preformed tau seeds, the biosensor cells stably express diffuse tau (soluble). However, exposure to exogenous preformed tau aggregates induces tau aggregation, generating a FRET signal with the CFP-YFP pair, intensifying the fluorescent signal in the tau inclusions. The FRET signal allows to distinguish the tau aggregate formation from the monomeric background. The use of phospholipids (e.g. lipofectamine—Source: Thermofisher) for the transfection of exogenous tau aggregates maximizes the aggregate inducing capacity.
The final peptide concentration of the non-natural molecules applied on the cells is 500 nM and the final concentration of preformed tau aggregates is 200 nM. 20 hours after transfection cells were fixed and two readouts were used to quantify the activities of the non-natural molecules: • determination of the fraction of cells with green spots: these are the cells that have induced tau aggregation. • determination of the fraction of cells with red spots: these are the cells that are positive for preformed tau aggregates.
In this example non-natural molecules of the invention were generated based on the sequences of capping peptides CAP1_TR and HET (sequences depicted in column 2 in Table 2). A tau biosensor seeding assay was performed with a concentration range of peptides. Thus, the assay is the same as described in example 2 but now a range of concentrations of capping peptides and non-natural molecules comprising the capping peptides were used to incubate with preformed tau aggregates. FIGS. 6 and 7 depict the final concentration of the peptides and derived non-natural molecules applied on the cells (see FIGS. 6 and 7).

[6] = biological target: T4, preformed tau aggregates; test: Microscale Thermophoresis (MST) with preformed tau aggregates; assay type: binding
Experimental: To measure the affinity of the capping peptides, and non-natural molecules derived thereof, with full length tau, we performed Microscale Thermophoresis (MST, Monolith NT.Automated) experiments. Briefly, atto-633-labeled tau monomers or atto-633-labeled preformed tau aggregates were mixed with a concentration range of capping peptides, and non-natural molecules derived thereof, and MST measurement were performed.

[7] = biological target: T4, preformed tau aggregates; test: spreading of tau pathology in hTau[P301L] mice; assay type: in vivo; conditions: tau aggregates pretreated 6 hours, injected in hippocampus of hTau[P301L] mice; nine weeks; vs vehicle
Experimental: In an alternative transgenic murine model preformed tau aggregates are pretreated with the non-natural molecule (SEQ ID NO: 22) and after an incubation of 6 hours, this preformed mixture is injected into the hippocampus of young hTau^[P301L] mice (see Kent BA et al (2017) Brain Behay. 8(1) e00896), which haven't developed any tau pathology yet. Nine weeks after injection mice are sacrificed. Immunohistochemical (IHC) quantification of AT8-positive inclusions in the ipsilateral (injection site) and contralateral hippocampus (opposite site) is conducted. Preformed tau aggregates pretreated with a buffer serve as a control vehicle. We observe that the level of tau pathology spread to the contralateral hippocampus is reduced when the non-natural molecule depicted in SEQ ID NO: 22 is applied as compared to the vehicle.

Tau aggregates, sequence (P10636 1-441 isoform P10636-8): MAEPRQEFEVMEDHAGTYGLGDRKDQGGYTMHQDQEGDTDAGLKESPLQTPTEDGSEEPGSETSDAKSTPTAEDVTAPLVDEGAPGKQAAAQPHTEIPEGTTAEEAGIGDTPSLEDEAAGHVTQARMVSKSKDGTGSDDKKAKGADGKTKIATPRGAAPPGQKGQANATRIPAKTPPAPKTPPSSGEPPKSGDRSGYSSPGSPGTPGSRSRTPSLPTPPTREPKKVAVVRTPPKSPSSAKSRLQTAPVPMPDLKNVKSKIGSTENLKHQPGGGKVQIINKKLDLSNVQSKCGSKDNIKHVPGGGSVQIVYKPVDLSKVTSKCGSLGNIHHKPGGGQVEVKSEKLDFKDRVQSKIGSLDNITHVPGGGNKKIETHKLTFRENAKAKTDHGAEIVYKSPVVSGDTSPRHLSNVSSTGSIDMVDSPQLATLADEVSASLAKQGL
T4 sequence (P10636 1-441 isoform P10636-8): as above
T3 sequence (P05067 672-713 limits assumed): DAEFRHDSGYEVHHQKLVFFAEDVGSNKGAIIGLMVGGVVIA
T2 sequence (P05067 672-713 limits assumed): as above

Substance: EQIINKGSFQIVYK (Capping peptide) [CAP_4D]
- fraction of cells with induced aggregates, normalized [1]: most performant peptides
- specificity for tau aggregation (a-specific effects in Sup35-NM biosensor line) [2]: specific for inhibiting tau aggregation

Substance: GWVVIAGSKLKFFA (Capping peptide) [AbCAP19]
- seeding capacity of preformed, sonicated Aβ fibrils (Th-T aggregation) [3]: clear effect on the seeding capacity

Substance: KLWFFA (Capping peptide)
- capping activity of single capping sequence across all hetero-tandem peptides [4]: score well at the highest concentrations

Substance: MVGGPVGSKLKFFA (Capping peptide) [AbCap 14]
- relative number of cells positive for induced Aβ aggregation (seeding capacity of Aβ seeds) [4]: effect at the highest concentrations

Substance: MVGGVKGSKWVFFP (Capping peptide) [AbCap 11]
- relative number of cells positive for induced Aβ aggregation (seeding capacity of Aβ seeds) [4]: effect at the highest concentrations

Substance: MVWGVV (Capping peptide)
- capping activity of single capping sequence across all hetero-tandem peptides [4]: score well at the highest concentrations

Substance: MVWGVVGSKLKFFA (Capping peptide) [AbCAP_2]
- seeding capacity of preformed, sonicated Aβ fibrils (Th-T aggregation) [3]: clear effect on the seeding capacity

Substance: MVWGVVGSKLWFFA (Capping peptide) [AbCAP3]
- seeding capacity of preformed, sonicated Aβ fibrils (Th-T aggregation) [3]: clear effect on the seeding capacity

Substance: MVWGVVGSKWVFFA (Capping peptide) [AbCap 4]
- seeding capacity of preformed, sonicated Aβ fibrils (Th-T aggregation) [3]: clear effect on the seeding capacity
- relative number of cells positive for induced Aβ aggregation (seeding capacity of Aβ seeds) [4]: concentration-dependent effect

Substance: RWQIVYKEGSRWQIVYKR [CAP1_TR]
- fraction of cells with red spots (exogenous tau aggregates; tau aggregate degradation) ([5]; concentration range of peptide, tau aggregates pre-treated 6 hours): slight reduction in cells positive for red spots in the highest concentration

Substance: VQWINKGSVQMVYK (Capping peptide) [CAP_1E]
- fraction of cells with induced aggregates, normalized [1]: most performant peptides
- specificity for tau aggregation (a-specific effects in Sup35-NM biosensor line) [2]: specific for inhibiting tau aggregation

Substance: VQWINKGSWQIVYK (Capping peptide) [CAP_1A]
- fraction of cells with induced aggregates, normalized [1]: most performant peptides
- specificity for tau aggregation (a-specific effects in Sup35-NM biosensor line) [2]: specific for inhibiting tau aggregation

Substance: WQIVYKGSVWMINK [HET]
- affinity for tau aggregates compared to tau monomers (MST) ([6]; aggregates versus monomers): higher affinity for tau aggregates compared to tau-monomers
- affinity for tau aggregates (MST) ([6]; atto-633-labeled preformed tau aggregates, concentration range): measured affinities are significantly higher compared to CAP1_TR variants
- fraction of cells with green spots (induced tau aggregation) [5]: reduced tau aggregation
- fraction of cells with red spots (exogenous preformed tau aggregates) [5]: reduction in exogenous preformed tau aggregates

Substance: WQIVYKGSVWMINKGSGSKFERQKILDQRFFE (HET_CMA1) [HET-CMA1]
- fraction of cells with green spots (induced tau aggregation) [5]: reduced tau aggregation
- fraction of cells with red spots (exogenous preformed tau aggregates) [5]: reduction in exogenous preformed tau aggregates

Substance: WQIVYKGSVWMINKGSGSNLLRLTGW (HET_JAV) [HET-JAV]
- fraction of cells with green spots (induced tau aggregation) [5]: reduced tau aggregation
- fraction of cells with red spots (exogenous preformed tau aggregates) [5]: reduction in exogenous preformed tau aggregates
- level of tau pathology spread to the contralateral hippocampus (AT8-positive inclusions, IHC) [7]: reduced

Substance: WQIVYKGSVWMINKGSGSVKKDQGSKFERQ (HET_CMA2) [HET-CMA2]
- fraction of cells with green spots (induced tau aggregation) [5]: reduced tau aggregation
- fraction of cells with red spots (exogenous preformed tau aggregates) [5]: reduction in exogenous preformed tau aggregates
